Literature values, collected in paper PMC12186298, “Phase 1 clinical trial of eneboparatide, a novel PTH receptor 1 agonist” (Endocrine Connections, 2025).

Tested on: patients with hypoparathyroidism
Conditions: not associated with increased elimination of phosphorus in urine; cited from earlier work
Procedure: Hyperphosphataemia enhances the risk of long-term development of cardiovascular diseases that is particularly important in patients with renal insufficiency, but also exists in patients with normal renal function ([16]). […] This decrease in sPh was apparent after 14 days of treatment in connection with a reduction in the rate of renal reabsorption of phosphorus. The impact of eneboparatide on sPh was primarily observed within the first 12 h after dosing.

B1: PTH(1–84): parathyroid hormone (1–84) therapy, cited comparator (protein, UniProt P01270 32-115, looked up)
Parathyroid hormone: SVSEIQLMHNLGKHLNSMERVEWLRKKLQDVHNFVALGAPLAPRDAGSQRPRKKEDNVLVESHEKSLGEADKADVNVLTKAKSQ
modifications: Parathyroid hormone
notes: parathyroid hormone (1–84) therapy, cited comparator
  sPh after the onset of therapy: decreased rapidly and significantly
